# Laboratory results taken from patent US20230050056A1, “METHOD FOR SCREENING PORE-FORMING MEMBRANE PROTEINS, MEMBRANE TR[…] MOLECULAR SWITCHES” (TECHNISCHE UNIVERSITÄT DARMSTADT, priority 2019, published 2023).
# Residue numbers refer to the chain shown, from its start.
# B1: S^21-68: Wild-type of the S^21-68 pinholin of bacteriophage P21 with pronounced and defined pore-forming properties (protein)
# chain: MDKISTGIAYGTSAGSAGYWFLQWLDQVSPSQWAAIGVLGSLVLGFLTYLTNLYFKIREDRRKAARGE
# modifications: Bacteriophage P21
# B2: S^21-71 M4A (protein)
# chain: MKSADKISTGIAYGTSAGSAGYWFLQWLDQVSPSQWAAIGVLGSLVLGFLTYLTNLYFKIREDRRKAARGE
# modifications: Mutant of S21-71 anti-pinholin of bacteriophage P21
# B3: Clone P7D10 (protein)
# chain: B2 chain with K2A, S3G, A4W
# modifications: Mutant of S21-71 anti-pinholin of bacteriophage P21
# B4: Clone P14C11 (protein)
# chain: B2 chain with K2N, S3F, A4E
# modifications: Mutant of S21-71 anti-pinholin of bacteriophage P21
# B5: Clone P14E5 (protein)
# chain: B2 chain with K2Y, S3L, A4E
# modifications: Mutant of S21-71 anti-pinholin of bacteriophage P21
# B6: Clone P3G3 (protein)
# chain: B2 chain with K2W, S3R, A4G
# modifications: Mutant of S21-71 anti-pinholin of bacteriophage P21
# B7: Clone P15D3 (protein)
# chain: B2 chain with K2D, S3W, A4D
# modifications: Mutant of S21-71 anti-pinholin of bacteriophage P21
# B8: Clone P3E5 (protein)
# chain: B2 chain with K2F, S3Q, A4W
# modifications: Mutant of S21-71 anti-pinholin of bacteriophage P21
# B9: T4 holin Wild-type: Wild-type of the T4 pinholin of bacteriophage T4 with highly pronounced pore-forming properties (protein)
# chain: MAAPRISFSPSDILFGVLDRLFKDNATGKVLASRVAVVILLFIMAIVWYRGDSFFEYYKQSKYETYSEIIEKERTARFESVALEQLQIVHISSEADFSAVYSFRPKNLNYFVDIIAYEGKLPSTISEKSLGGYPVDKTMDEYTVHLNGRHYYSNLKFAFLPTKKPTPEINYMYSCPYFNLDNIYAGTITMYWYRNDHISNDRLESICAQAARILGRAK
# modifications: Bacteriophage T4
# B10: S^107-M3A (protein)
# chain: MKAPEKHDLLAAILAAKEQGIGAILAFAMAYLRGRYNGGAFTKTVIDATMCAIIAWFIRDLLDFAGLSSNLAYITSVFIGYIGTDSIGSLIKRFAAKKAGVEDGRNQ
# modifications: Mutant of S107 anti-pinholin of bacteriophage lambda
# Key:
# [1] = system: inner membrane of E. coli; type: cell-based, E. coli BL21(DE3)
# [2] = system: E. coli; experiment: G-GECO1 single-cell fluorescence microscopy in a microfluidic cultivation chamber (Example 11); conditions: for G-GECO1 fluorescent signal after expression: pCTRL2.T7.100 constructs, 0.5 mM IPTG
# Method: Colonies of BL21(DE3) on LB agar plates from 1. were picked and cultivated in culture tubes with 2 ml of LB medium and the necessary antibiotics overnight for about 16 h at 37° C. and 180 rpm.
# After the cultivation of individual clones from 2. overnight, the cells were transferred to fresh sterile-filtered LB medium, the OD600 of the precultures was 20 adjusted to 0.1, and subsequently grown at 37° C. for a period of 3 h up to an OD600 of 2.
# For the cultivation and functional fluorescence-microscopic examination of the cells in a microfluidic cultivation chamber, it was possible to use a previously published microfluidic chip design (see Supplementary FIG. 5 in Nature Communications, 2020, 11, 2746).
# After the microfluidic chip was flooded with LB medium, the cells were added and the flow rate through the microfluidic chip was adjusted to 1 μl/min. The cells were left in the microfluidic chip at 37° C. for 3 h, so that they were able to collect and grow accordingly in the cultivation chambers.
# Thereafter, the expression of G-GECO1 was induced by a change to LB medium with 25 mM sodium propionate, pH 8.0, at 30° C. for 2 h.
# Subsequently, the nanopores were then induced by a change to LB medium with 0.5 mM IPTG, and the development of the fluorescent signal was measured over 16 h.
# The fluorescent signal was measured by means of a fluorescence microscope at 30° C. in intervals of 3 minutes. A transmitted-light image and then a fluorescence image (Ex: 488 nm; Em: 504-539 nm) in the form of a Z-stack were taken each time. From the induction of G-GECO1, a flow rate of 4 μl/min was used.
# For the analysis, the entire cells from a single cultivation chamber (shown by way of example in FIG. 23) were analyzed with the aid of image analysis software (Fiji ImageJ 1.51; Nature Methods, 2012, 9, 676-82) and the fluorescence in relative fluorescence units (RFU) was plotted against the time (FIG. 24). Based on the curve of the fluorescent signal, detailed statements about the cell integrity or the outflow and the bleaching behavior of the sensor can then be made.
# [3] = system: inner membrane of E. coli; experiment: G-GECO1 fluorescence screening of the 3xNNK S2168 pinholin library in microtiter plates (Example 12); conditions: for Comment: effect on pore formation: measured at the half-maximum time c, N-terminal variants of S21-71; for Slope [d]: sigmoid fit with equation 1 (high d = low slope), G-GECO1; for Slope [d] / Half-maximum time [c]: pCTRL2.T7.100.sRBS library; for Half-maximum time [c]: sigmoid fit with equation 1, G-GECO1, 0.5 mM IPTG
# Method: Colonies of BL21(DE3) on LB agar from 3. were picked and cultivated in deep well plates with 300 μl of LB medium with the necessary antibiotics overnight for about 16 h at 37° C. and 1300 rpm.
# After cultivating individual clones from 4. overnight, the OD600 of the precultures in microtiter plates was adjusted to 0.1, and the samples, 200 μL each, were shaken at 37° C. and 180 rpm for 30 min. Within the framework of the pCTRL2-^3×NNKS^2168 library, 271 clones were thus picked. Within the framework of the pCTRL2.T7.100.sRBS-^3×NNKS^2168 library, 576 clones were picked.
# Subsequently, all nanopore variants were then induced with 0.5 mM IPTG, and the fluorescence was measured over another 190 min.
# General information: The measurement in the reader is carried out at 30° C. every 3 min. The plate is shaken at 180 rpm between the measurements. The OD600 and the fluorescence (Ex: 485 nm; Em: 525 nm) are measured. The volume in the cavities is 200 μl after addition of all inductors.
# For the analysis, the curves were fitted empirically with equation 1 in order to quantitatively determine the half-maximum time c or the slope d, for example.
Molecule,Comment: effect on pore formation [3],Slope [d] [3],Half-maximum time [c] [3],further results
HokB: Pore-forming membrane peptide; forms part of a bacterial efflux or toxin/antitoxin system (MKHNPLVVCLLIICITILTFTLLTRQTLYELRFRDGDKEVAALMACTSR; listed as Escherichia coli),–,–,–,iGluSNFr fluorescent signal after co-expression (L-Glu outflow) [1]: reduction in the fluorescence
B1,–,–,–,cell division after expression [2]: stop quickly; cellular integrity measured at the form of the cells [2]: remains intact over a comparatively long period of time; G-GECO1 fluorescent signal after expression [2]: increase quickly
B2,–,–,–,iGluSNFr fluorescent signal after co-expression (L-Glu outflow) [1]: reduction in the fluorescence
B3,Inhibitory,22.49,304.1,–
B4,Accelerating,6.835,172.3,–
B5,Accelerating,4.908,166.1,–
B6,Inhibitory,47.62,358.7,–
B7,Accelerating,6.727,187.4,–
B8,Inhibitory,28.25,483.1,–
B9,–,–,–,cell division after expression [2]: stop quickly; time window before loss of cellular integrity or outflow of the sensor [2]: 30 min; time within which the fluorescent signal decreases again [2]: ≤ 30 min; G-GECO1 fluorescent signal after expression [2]: increase quickly
B10,–,–,–,iGluSNFr fluorescent signal after co-expression (L-Glu outflow) [1]: reduction in the fluorescence
